# Test results from patent publication US20050038611.
# Biological target: T1, ribosomal protein S8 (Staphylococcus aureus) (UniProt A6U3W1)
# T1 sequence: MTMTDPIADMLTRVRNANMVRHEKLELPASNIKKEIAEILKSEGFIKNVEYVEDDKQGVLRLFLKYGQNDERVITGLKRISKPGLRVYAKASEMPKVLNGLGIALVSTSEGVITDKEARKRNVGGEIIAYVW
# Test: filter
# Conditions: 80 mM HEPES-KOH pH 7.6, 350 mM KOAc, 20 mM MgOAc, on ice
Substance,binding signal (fold decrease in affinity vs wild type) (apparent Kd in Table 5 not given),Kd [nM]
S. aureus Helix 21 A604-U652 to G-C,10,–
S. aureus Helix 21 rRNA wild type (nts 596-659 of 16S rRNA),–,400
